Here are results for one substance from patent US20120065106.

In series [1] the test system is SMT3-GFP (wild-type SUMO-GFP fusion) [SUMO: Q12306].
The subject of series [2] is SUMO*-GFP (engineered SUMO 2F4, Smt3 R64T R71E, fused to GFP).

Chain of SMT3-GFP (wild-type SUMO-GFP fusion) [SUMO: Q12306] (Q12306 whole entry, looked up, the tested form may be a part): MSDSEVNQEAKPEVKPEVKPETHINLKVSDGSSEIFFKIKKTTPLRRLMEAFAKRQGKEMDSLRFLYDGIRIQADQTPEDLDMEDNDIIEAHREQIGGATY
Chain of SUMO*-GFP (engineered SUMO 2F4, Smt3 R64T R71E, fused to GFP) (chain, as listed by the source R64T R71E): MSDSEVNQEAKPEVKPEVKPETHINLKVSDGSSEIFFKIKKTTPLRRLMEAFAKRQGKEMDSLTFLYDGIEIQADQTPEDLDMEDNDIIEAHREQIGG

Take SUMO protease 2 (SENP2): the “in vitro cleavage (SDS-PAGE and anti-Smt3 Western blot)” value in series [1] is “wild-type SUMO (Smt3) is cleaved by ULP1 and SENP2 (SUMO protease 1 and 2) in vitro”. Further, in series [2], the “in vitro cleavage reaction” value is recorded as “Neither protease cleaved SUMO*”.
